One molecule from US20160177336A1 (EIDGENOESSISCHE TECHNISCHE HOCHSCHULE ZURICH, published 2016) can be followed below.

The target in the assay is T1, Itc1p (yeast, UniProt P53125 1-1264).
T1 construct: Co-expressed with Isw2p in insect cells from MultiBac baculovirus; also called 145 kDa Itc1p; subunit of the yeast Isw2 chromatin remodelling complex
T1 sequence (looked up): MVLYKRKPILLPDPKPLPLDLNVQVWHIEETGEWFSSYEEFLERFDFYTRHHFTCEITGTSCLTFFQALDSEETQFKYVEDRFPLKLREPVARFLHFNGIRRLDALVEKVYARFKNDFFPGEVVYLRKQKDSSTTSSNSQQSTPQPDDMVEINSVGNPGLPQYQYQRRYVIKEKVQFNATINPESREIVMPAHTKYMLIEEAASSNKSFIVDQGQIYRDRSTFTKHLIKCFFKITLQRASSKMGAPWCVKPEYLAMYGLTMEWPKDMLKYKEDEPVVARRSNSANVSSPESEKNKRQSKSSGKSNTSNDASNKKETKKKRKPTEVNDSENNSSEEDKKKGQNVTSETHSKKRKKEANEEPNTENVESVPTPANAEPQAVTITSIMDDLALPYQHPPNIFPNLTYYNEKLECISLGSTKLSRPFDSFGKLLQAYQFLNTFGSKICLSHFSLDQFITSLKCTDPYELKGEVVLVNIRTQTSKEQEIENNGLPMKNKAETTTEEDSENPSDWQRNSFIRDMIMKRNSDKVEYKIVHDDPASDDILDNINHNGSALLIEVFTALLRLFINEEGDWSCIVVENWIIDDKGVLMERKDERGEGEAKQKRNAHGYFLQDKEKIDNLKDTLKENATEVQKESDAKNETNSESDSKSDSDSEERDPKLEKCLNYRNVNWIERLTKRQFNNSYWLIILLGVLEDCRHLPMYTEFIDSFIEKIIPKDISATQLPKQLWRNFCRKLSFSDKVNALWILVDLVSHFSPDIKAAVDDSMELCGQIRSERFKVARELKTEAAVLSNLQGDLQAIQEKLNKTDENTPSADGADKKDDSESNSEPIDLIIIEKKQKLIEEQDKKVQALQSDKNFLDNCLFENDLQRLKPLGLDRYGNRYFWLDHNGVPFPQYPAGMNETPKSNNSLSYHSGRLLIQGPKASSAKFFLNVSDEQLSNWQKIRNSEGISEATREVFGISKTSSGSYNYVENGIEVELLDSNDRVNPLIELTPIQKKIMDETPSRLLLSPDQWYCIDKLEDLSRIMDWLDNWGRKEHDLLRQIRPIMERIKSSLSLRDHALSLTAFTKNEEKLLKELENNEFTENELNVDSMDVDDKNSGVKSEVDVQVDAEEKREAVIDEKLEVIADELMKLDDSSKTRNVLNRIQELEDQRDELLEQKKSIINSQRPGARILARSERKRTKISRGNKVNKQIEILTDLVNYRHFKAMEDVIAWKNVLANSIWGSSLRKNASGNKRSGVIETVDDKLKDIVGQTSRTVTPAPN
In words: co-expression in insect cells from MultiBac baculovirus; complex purified (FIG. 8). From the text: In a test experiment the yeast Isw2 chromatin remodelling complex consisting of the 130 kDa Isw2p and the 145 kDa Itc1p proteins was expressed. One version of MultiBac was created with both proteins integrated at the attTn7 site, and a second version with Isw2p integrated at the attTn7 site and Itc1p inserted at the LoxP site. […] For further detail see FIG. 8.

B1: Isw2p (other, yeast, UniProt Q08773 1-1120, looked up)
chain: MTTQQEEQRSDTKNSKSESPSEVLVDTLDSKSNGSSDDDNIGQSEELSDKEIYTVEDRPPEYWAQRKKKFVLDVDPKYAKQKDKSDTYKRFKYLLGVTDLFRHFIGIKAKHDKNIQKLLKQLDSDANKLSKSHSTVSSSSRHHRKTEKEEDAELMADEEEEIVDTYQEDIFVSESPSFVKSGKLRDYQVQGLNWLISLHENKLSGILADEMGLGKTLQTISFLGYLRYVKQIEGPFLIIVPKSTLDNWRREFLKWTPNVNVLVLHGDKDTRADIVRNIILEARFDVLITSYEMVIREKNALKRLAWQYIVIDEAHRIKNEQSALSQIIRLFYSKNRLLITGTPLQNNLHELWALLNFLLPDIFGDSELFDEWFEQNNSEQDQEIVIQQLHSVLNPFLLRRVKADVEKSLLPKIETNVYVGMTDMQIQWYKSLLEKDIDAVNGAVGKREGKTRLLNIVMQLRKCCNHPYLFEGAEPGPPYTTDEHLIFNSGKMIILDKLLKRLKEKGSRVLIFSQMSRLLDILEDYCYFRDFEYCRIDGSTSHEERIEAIDEYNKPNSEKFVFLLTTRAGGLGINLVTADTVILFDSDWNPQADLQAMDRAHRIGQKKQVHVYRFVTENAIEEKVIERAAQKLRLDQLVIQQGTGKKTASLGNSKDDLLDMIQFGAKNMFEKKASKVTVDADIDDILKKGEQKTQELNAKYQSLGLDDLQKFNGIENQSAYEWNGKSFQKKSNDKVVEWINPSRRERRREQTTYSVDDYYKEIIGGGSKSASKQTPQPKAPRAPKVIHGQDFQFFPKELDALQEKEQLYFKKKVNYKVTSYDITGDIRNEGSDAEEEEGEYKNAANTEGHKGHEELKRRIEEEQEKINSAPDFTQEDELRKQELISKAFTNWNKRDFMAFINACAKYGRDDMENIKKSIDSKTPEEVEVYAKIFWERLKEINGWEKYLHNVELGEKKNEKLKFQETLLRQKIEQCKHPLHELIIQYPPNNARRTYNTLEDKFLLLAVNKYGLRADKLYEKLKQEIMMSDLFTFDWFIKTRTVHELSKRVHTLLTLIVREYEQPDANKKKRSRTSATREDTPLSQNESTRASTVPNLPTTMVTNQKDTNDHVDKRTKIDQEA
notes: Co-expressed with Itc1p in insect cells from MultiBac baculovirus; also called 130 kDa Isw2p; subunit of the yeast Isw2 chromatin remodelling complex
On to B1, for which the binding result was “binds”.
